This note sets out measurements from publication PMC5703901, “Rational design of cholesterol oxidase for efficient bioresolution of cholestane skeleton substrates” (Scientific Reports, 2017).

What all share (experiment): peroxidase-coupled 4-aminoantipyrine/phenol H2O2 assay, OD500
Type in all cases: biochemical, Pimelobacter simplex
What all share (conditions): 25 mM phosphate pH 7.5, isopropanol and Triton X-100, temperature not stated for kinetics

Substrate in data set [1]: [H][C@@]12CC=C3C[C@@H](O)CC[C@]3(C)[C@@]1([H])CC[C@@]1(C)[C@@]2([H])CC[C@]1([H])[C@H](C)CC[C@@H](CC)C(C)C
From the text: (§1) peroxidase-coupled 4-aminoantipyrine/phenol H2O2 assay, OD500 on PsChO

Substrate in data set [2]: [H][C@@]12CC=C3C[C@@H](O)CC[C@]3(C)[C@@]1([H])CC[C@@]1(C)[C@@]2([H])CC[C@]1([H])C(C)=O
Source text: as §1

Substrate in data set [3]: C[C@]12CC[C@H](O)CC1=CC[C@@H]1[C@@H]2CC[C@]2(C)C(=O)CC[C@@H]12
Source text: as §1

Substrate in data set [4]: CC[C@H](/C=C/[C@@H](C)[C@H]1CC[C@H]2[C@@H]3CC=C4C[C@@H](O)CC[C@]4(C)[C@H]3CC[C@]12C)C(C)C
Source text: as §1

Substrate in data set [5]: CC(C)CCC[C@@H](C)[C@H]1CC[C@H]2[C@@H]3CC=C4C[C@@H](O)CC[C@]4(C)[C@H]3CC[C@]12C
Source text: as §1

B1: PsChO (Pimelobacter simplex; V115C) (protein)
chain: VLVIGTGYGGAVAALRLAQAGVQVEMIEMGMSWDTPGSDGKIFAKVTSPDKRAYWLRTKTKAPCSNFFGFPIDATIPKYTGILDAEEFAGITVYQGRGVGGGSLVNGGMAVTPKQSRFSSILPSVDAAEMYATYYPRANAGLGVGSIDPAWFETAECYKYARVGRKHAQRSGFAWTFVPDVYDWNYMKAEQAGTVTRSALDGQVMYGNDHGKKSLVQTYLAQALATGRVNVSTLHQVTAVAPRSGGGYTVSIDQLDTSGNVVGTKSVTAGKVFFAAGSVGTSKLLTKLKATGSLPALNNEIGKGWGDNGNVMCGRANHMWDPTGSLQSTIPCSGIDNWDAGGAFAEVAPLPTGIETYASLYLSITNTTRRAEFSWNAAANKVDLSWQTAWKQDSINMAKTIFDKINSKEGTIYRTDLFGAYKVWQDGLTYHPLGGAVLNKATDNYGRLHGYNGLYVIDGALIPGNTTVNPFVTITALAERNIDNILANDI
notes: wild-type gene in pET28a(+), E. coli BL21(DE3), His6-tagged, Ni-NTA purified; noncovalent FAD type; catalytic H431, E346, N469
On to B1, for which the Km in data set [1] came to 220.76 ± 3.14 µM; in data set [2], 228.42 ± 3.24 µM; in data set [3] it was 318.81 ± 3.25 µM; in data set [4], 528.84 ± 3.59 µM; in data set [5], 178.31 ± 1.38 µM. Moreover, the kcat in data set [1] was found to be 13.2 ± 0.36 s⁻¹; in data set [2] it was 13.7 ± 0.31 s⁻¹; in data set [3], 9.56 ± 0.34 s⁻¹; in data set [4] it was 4.23 ± 0.19 s⁻¹; in data set [5], 23 ± 0.29 s⁻¹. In addition, the kcat/Km in data set [1] came out at 60000 ± 700 M⁻¹ s⁻¹; in data set [2], 60000 ± 600 M⁻¹ s⁻¹; in data set [3], 30000 ± 500 M⁻¹ s⁻¹; in data set [4], 8000 ± 200 M⁻¹ s⁻¹; in data set [5], 130000 ± 500 M⁻¹ s⁻¹.

B2: PsChO (Pimelobacter simplex; F121V) (protein)
chain: VLVIGTGYGGAVAALRLAQAGVQVEMIEMGMSWDTPGSDGKIFAKVTSPDKRAYWLRTKTKAPVSNFFGVPIDATIPKYTGILDAEEFAGITVYQGRGVGGGSLVNGGMAVTPKQSRFSSILPSVDAAEMYATYYPRANAGLGVGSIDPAWFETAECYKYARVGRKHAQRSGFAWTFVPDVYDWNYMKAEQAGTVTRSALDGQVMYGNDHGKKSLVQTYLAQALATGRVNVSTLHQVTAVAPRSGGGYTVSIDQLDTSGNVVGTKSVTAGKVFFAAGSVGTSKLLTKLKATGSLPALNNEIGKGWGDNGNVMCGRANHMWDPTGSLQSTIPCSGIDNWDAGGAFAEVAPLPTGIETYASLYLSITNTTRRAEFSWNAAANKVDLSWQTAWKQDSINMAKTIFDKINSKEGTIYRTDLFGAYKVWQDGLTYHPLGGAVLNKATDNYGRLHGYNGLYVIDGALIPGNTTVNPFVTITALAERNIDNILANDI
notes: as for B1
For B2, the Km in data set [1] stood at 178.42 ± 1.61 µM; in data set [2] it was 190.61 ± 3.30 µM; in data set [3] it was 273.52 ± 2.13 µM; in data set [4], 384.12 ± 3.84 µM; in data set [5], 154.83 ± 3.31 µM. For the same protein, the kcat amounted to 16.1 ± 0.33 s⁻¹ in data set [1]; 15.2 ± 0.22 s⁻¹ in data set [2]; 13.7 ± 0.2 s⁻¹ in data set [3]; 7.68 ± 0.27 s⁻¹ in data set [4]; 15.5 ± 0.3 s⁻¹ in data set [5]. For the same protein, the kcat/Km came out at 90000 ± 800 M⁻¹ s⁻¹ in data set [1]; 80000 ± 400 M⁻¹ s⁻¹ in data set [2]; 50000 ± 600 M⁻¹ s⁻¹ in data set [3]; 20000 ± 200 M⁻¹ s⁻¹ in data set [4]; 100000 ± 400 M⁻¹ s⁻¹ in data set [5].

B3: PsChO (Pimelobacter simplex) (protein)
chain: VLVIGTGYGGAVAALRLAQAGVQVEMIEMGMSWDTPGSDGKIFAKVTSPDKRAYWLRTKTKAPVSNFFGFPIDATIPKYTGILDAEEFAGITVYQGRGVGGGSLVNGGMAVTPKQSRFSSILPSVDAAEMYATYYPRANAGLGVGSIDPAWFETAECYKYARVGRKHAQRSGFAWTFVPDVYDWNYMKAEQAGTVTRSALDGQVMYGNDHGKKSLVQTYLAQALATGRVNVSTLHQVTAVAPRSGGGYTVSIDQLDTSGNVVGTKSVTAGKVFFAAGSVGTSKLLTKLKATGSLPALNNEIGKGWGDNGNVMCGRANHMWDPTGSLQSTIPCSGIDNWDAGGAFAEVAPLPTGIETYASLYLSITNTTRRAEFSWNAAANKVDLSWQTAWKQDSINMAKTIFDKINSKEGTIYRTDLFGAYKVWQDGLTYHPLGGAVLNKATDNYGRLHGYNGLYVIDGALIPGNTTVNPFVTITALAERNIDNILANDI
notes: as for B1
Turning to B3, the Km turned out to be 328.61 ± 3.60 µM in data set [1]; 294.55 ± 2.97 µM in data set [2]; 341.21 ± 3.79 µM in data set [3]; 789.61 ± 4.71 µM in data set [4]; 204.85 ± 3.14 µM in data set [5]. Besides, the kcat in data set [1] amounted to 9.86 ± 0.35 s⁻¹; in data set [2], 11.8 ± 0.34 s⁻¹; in data set [3], 6.82 ± 0.14 s⁻¹; in data set [4], 1.58 ± 0.07 s⁻¹; in data set [5], 12.3 ± 0.32 s⁻¹. Moreover, the kcat/Km in data set [1] amounted to 30000 ± 500 M⁻¹ s⁻¹; in data set [2] it was 40000 ± 500 M⁻¹ s⁻¹; in data set [3], 20000 ± 400 M⁻¹ s⁻¹; in data set [4], 2000 ± 100 M⁻¹ s⁻¹; in data set [5], 60000 ± 300 M⁻¹ s⁻¹.

A word on the Km: it is the substrate concentration at which the rate is half of its maximum. As a reminder, the kcat is the maximal rate divided by the concentration of active sites. In general, kcat/Km refers to the second-order rate constant that governs catalysis at low substrate concentration.
